# Test results reported in IntAct's records for PubMed 20562859.
# B1: Gamma-aminobutyric acid receptor-associated protein (Homo sapiens), O95166 (parent)
# chain: MKFVYKEEHPFEKRRSEGEKIRKKYPDRVPVIVEKAPKARIGDLDKKKYLVPSDLTVGQFYFLIRKRIHLRAEDALFFFVNNVIPPTSATMGQLYQEHHEEDFFLYIAYSDESVYGL
# partner: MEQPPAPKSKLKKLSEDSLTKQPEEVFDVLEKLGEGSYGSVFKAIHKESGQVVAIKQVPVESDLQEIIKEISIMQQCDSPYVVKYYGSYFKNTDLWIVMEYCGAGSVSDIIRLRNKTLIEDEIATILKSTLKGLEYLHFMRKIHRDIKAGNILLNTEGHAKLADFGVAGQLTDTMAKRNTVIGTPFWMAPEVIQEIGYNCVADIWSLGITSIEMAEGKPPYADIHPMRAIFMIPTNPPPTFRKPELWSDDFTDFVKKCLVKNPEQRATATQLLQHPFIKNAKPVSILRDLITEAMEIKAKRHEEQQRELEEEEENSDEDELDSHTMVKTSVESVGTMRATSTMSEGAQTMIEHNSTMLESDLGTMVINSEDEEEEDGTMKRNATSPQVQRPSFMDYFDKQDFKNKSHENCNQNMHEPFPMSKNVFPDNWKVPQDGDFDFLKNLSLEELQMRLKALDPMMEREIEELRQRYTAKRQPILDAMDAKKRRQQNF
# B2: Gamma-aminobutyric acid receptor-associated protein (Homo sapiens), O95166 (parent)
# chain: B1 chain
# B3: Gamma-aminobutyric acid receptor-associated protein (Homo sapiens), O95166 (parent)
# chain: B1 chain
# partner: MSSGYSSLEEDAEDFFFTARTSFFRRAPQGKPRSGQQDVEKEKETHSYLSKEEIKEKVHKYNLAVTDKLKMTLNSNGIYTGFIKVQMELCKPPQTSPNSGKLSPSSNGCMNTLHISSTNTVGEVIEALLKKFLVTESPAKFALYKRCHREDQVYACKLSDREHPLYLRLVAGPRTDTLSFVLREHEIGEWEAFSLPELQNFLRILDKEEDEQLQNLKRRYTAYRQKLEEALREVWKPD
# B4: Gamma-aminobutyric acid receptor-associated protein (Homo sapiens), O95166 (parent)
# chain: B1 chain
# partner: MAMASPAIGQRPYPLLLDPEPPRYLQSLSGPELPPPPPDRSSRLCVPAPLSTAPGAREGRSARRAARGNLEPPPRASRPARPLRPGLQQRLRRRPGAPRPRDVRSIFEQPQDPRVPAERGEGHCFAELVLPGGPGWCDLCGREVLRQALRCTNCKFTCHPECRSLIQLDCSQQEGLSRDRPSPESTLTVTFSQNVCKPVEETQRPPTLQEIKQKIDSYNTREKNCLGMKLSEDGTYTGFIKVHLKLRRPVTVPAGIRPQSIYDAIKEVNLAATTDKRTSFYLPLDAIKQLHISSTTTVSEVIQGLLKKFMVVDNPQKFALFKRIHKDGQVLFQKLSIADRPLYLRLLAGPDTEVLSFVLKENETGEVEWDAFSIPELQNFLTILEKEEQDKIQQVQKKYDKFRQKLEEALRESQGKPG
# B5: Gamma-aminobutyric acid receptor-associated protein (Homo sapiens), O95166 (parent)
# chain: B1 chain
# partner: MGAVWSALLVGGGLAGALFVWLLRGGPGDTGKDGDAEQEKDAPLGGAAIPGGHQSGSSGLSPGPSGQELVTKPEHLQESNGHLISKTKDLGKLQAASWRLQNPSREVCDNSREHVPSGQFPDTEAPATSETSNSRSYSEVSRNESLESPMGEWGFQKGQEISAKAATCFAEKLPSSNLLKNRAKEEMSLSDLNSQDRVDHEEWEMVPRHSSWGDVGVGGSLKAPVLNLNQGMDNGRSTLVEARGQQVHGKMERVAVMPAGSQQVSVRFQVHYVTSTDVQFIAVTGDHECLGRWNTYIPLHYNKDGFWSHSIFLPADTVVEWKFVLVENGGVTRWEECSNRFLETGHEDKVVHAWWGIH
# B6: Gamma-aminobutyric acid receptor-associated protein (Homo sapiens), O95166 (parent)
# chain: B1 chain
# partner: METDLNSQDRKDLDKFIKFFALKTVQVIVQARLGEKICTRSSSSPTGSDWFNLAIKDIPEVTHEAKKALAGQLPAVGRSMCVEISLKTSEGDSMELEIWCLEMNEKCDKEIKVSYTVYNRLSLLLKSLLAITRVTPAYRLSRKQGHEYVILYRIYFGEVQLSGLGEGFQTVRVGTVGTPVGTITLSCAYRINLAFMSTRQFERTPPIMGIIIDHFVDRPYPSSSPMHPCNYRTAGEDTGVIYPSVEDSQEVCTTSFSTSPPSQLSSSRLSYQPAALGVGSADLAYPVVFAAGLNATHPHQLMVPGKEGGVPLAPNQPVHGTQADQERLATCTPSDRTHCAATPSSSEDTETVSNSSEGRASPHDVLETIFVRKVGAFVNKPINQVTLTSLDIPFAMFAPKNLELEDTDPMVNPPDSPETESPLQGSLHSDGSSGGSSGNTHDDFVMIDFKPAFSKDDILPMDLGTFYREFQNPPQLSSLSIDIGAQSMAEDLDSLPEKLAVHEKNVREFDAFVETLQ
# B7: Gamma-aminobutyric acid receptor-associated protein (Homo sapiens), O95166 (parent)
# chain: B1 chain
# partner: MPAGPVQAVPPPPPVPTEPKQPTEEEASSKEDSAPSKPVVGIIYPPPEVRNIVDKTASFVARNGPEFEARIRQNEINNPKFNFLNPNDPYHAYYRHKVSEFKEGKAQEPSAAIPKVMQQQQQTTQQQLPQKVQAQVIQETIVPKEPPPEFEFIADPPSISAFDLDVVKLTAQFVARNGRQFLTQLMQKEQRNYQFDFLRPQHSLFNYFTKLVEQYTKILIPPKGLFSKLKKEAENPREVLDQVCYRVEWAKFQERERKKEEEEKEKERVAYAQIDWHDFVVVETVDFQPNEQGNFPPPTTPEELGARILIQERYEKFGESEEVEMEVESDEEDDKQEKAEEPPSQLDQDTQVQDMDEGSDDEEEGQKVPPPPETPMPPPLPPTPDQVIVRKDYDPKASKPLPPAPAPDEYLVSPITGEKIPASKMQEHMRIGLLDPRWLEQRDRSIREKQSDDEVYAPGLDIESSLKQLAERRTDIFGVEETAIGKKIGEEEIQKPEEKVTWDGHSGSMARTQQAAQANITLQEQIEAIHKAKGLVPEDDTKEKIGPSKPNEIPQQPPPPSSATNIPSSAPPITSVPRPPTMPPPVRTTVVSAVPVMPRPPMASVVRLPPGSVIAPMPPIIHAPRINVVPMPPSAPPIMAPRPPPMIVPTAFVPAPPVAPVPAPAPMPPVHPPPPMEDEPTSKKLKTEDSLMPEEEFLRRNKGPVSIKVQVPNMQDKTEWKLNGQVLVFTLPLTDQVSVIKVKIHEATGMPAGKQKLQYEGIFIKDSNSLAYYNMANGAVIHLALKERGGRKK
# B8: Gamma-aminobutyric acid receptor-associated protein (Homo sapiens), O95166 (parent)
# chain: B1 chain
# partner: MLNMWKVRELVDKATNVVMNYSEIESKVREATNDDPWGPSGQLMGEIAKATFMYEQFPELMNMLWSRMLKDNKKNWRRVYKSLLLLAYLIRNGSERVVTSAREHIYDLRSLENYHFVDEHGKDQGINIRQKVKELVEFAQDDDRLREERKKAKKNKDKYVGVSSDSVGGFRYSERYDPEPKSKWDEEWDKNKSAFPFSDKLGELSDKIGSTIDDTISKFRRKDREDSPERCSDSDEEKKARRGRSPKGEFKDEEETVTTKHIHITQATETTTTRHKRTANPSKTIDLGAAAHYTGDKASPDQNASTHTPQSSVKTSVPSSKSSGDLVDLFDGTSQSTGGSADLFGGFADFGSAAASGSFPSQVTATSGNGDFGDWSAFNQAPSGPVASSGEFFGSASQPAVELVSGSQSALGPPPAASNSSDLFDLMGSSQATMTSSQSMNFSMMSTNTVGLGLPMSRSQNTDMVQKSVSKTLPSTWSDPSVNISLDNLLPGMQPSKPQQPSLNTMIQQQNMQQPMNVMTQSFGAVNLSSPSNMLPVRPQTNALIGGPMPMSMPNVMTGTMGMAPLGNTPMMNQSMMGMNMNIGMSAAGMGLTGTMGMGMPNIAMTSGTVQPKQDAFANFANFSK
# B9: Gamma-aminobutyric acid receptor-associated protein (Homo sapiens), O95166 (parent)
# chain: B1 chain
# partner: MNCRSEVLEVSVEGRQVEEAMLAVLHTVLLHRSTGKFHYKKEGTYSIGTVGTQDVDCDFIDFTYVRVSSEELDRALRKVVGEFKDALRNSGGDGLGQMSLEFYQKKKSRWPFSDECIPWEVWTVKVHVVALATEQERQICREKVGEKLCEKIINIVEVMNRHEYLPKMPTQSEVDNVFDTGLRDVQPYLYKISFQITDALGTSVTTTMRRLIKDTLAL
# Variants of: B1
# Conditions: with stk3_human STK3, Q13188
row,effect of a mutation on the interaction,Variant
1,decreasing interaction,Y49A;L50A

# Variants of: B2
# Conditions: with atg2a_human ATG2A
row,effect of a mutation on the interaction,Variant
1,decreasing interaction,Y49A;L50A

# Variants of: B2
# Conditions: with atg3_human ATG3, Q9NT62
# Sequence of atg3_human ATG3, Q9NT62 (Q9NT62 whole entry): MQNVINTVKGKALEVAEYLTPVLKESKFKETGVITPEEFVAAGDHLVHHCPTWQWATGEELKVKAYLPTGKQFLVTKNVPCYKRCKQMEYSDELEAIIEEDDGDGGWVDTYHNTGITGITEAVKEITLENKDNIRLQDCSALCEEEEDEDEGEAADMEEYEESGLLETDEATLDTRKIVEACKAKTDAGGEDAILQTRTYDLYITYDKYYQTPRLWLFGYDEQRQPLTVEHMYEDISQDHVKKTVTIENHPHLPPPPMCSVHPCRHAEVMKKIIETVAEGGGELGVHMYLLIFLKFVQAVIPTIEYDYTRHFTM
row,effect of a mutation on the interaction,Variant
1,disrupting interaction,Y49A;L50A

# Variants of: B2
# Conditions: with echa_human HADHA
row,effect of a mutation on the interaction,Variant
1,decreasing interaction,Y49A;L50A

# Variants of: B2
# Conditions: with nedd4_human NEDD4, P46934
# Sequence of nedd4_human NEDD4, P46934 (P46934 whole entry): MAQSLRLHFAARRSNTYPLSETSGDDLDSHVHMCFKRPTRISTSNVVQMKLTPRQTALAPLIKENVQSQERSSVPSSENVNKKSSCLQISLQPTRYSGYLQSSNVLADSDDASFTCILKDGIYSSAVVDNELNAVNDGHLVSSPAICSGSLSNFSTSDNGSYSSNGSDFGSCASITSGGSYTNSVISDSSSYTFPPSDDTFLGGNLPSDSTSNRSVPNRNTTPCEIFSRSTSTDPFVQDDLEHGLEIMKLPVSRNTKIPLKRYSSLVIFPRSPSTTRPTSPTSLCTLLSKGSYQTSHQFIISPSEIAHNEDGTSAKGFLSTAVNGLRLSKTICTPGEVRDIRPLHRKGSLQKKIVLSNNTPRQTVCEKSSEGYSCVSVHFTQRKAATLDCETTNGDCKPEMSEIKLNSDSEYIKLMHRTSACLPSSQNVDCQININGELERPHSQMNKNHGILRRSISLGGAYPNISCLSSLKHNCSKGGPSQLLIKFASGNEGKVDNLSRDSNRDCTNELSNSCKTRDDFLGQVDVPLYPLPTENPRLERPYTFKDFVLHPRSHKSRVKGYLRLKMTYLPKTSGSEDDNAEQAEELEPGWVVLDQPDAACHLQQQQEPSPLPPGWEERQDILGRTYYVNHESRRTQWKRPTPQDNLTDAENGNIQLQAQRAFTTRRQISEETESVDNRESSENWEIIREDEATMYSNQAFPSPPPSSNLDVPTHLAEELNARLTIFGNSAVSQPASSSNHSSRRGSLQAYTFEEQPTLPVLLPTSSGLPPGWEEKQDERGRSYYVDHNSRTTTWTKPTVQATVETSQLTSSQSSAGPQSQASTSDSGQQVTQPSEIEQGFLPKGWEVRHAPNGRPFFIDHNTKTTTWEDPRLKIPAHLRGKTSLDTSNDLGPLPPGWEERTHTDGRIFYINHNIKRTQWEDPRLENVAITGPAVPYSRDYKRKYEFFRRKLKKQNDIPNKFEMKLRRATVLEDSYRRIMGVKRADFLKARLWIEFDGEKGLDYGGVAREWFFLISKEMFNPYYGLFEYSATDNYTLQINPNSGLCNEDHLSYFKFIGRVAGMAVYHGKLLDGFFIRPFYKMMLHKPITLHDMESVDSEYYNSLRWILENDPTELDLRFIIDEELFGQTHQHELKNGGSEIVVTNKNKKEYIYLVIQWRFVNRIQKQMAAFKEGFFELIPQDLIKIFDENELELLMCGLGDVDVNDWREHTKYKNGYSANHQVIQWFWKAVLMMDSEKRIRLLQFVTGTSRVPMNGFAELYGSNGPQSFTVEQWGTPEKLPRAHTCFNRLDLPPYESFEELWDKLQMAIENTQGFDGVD
row,effect of a mutation on the interaction,Variant
1,disrupting interaction,Y49A;L50A

# Variants of: B3
# Conditions: with rasf3_human RASSF3, Q86WH2
row,effect of a mutation on the interaction,Variant
1,decreasing interaction,Y49A;L50A

# Variants of: B4
# Conditions: with rasf5_human RASSF5, Q8WWW0
row,effect of a mutation on the interaction,Variant
1,increasing interaction,Y49A;L50A

# Variants of: B5
# Conditions: with stbd1_human STBD1, O95210
row,effect of a mutation on the interaction,Variant
1,decreasing interaction,Y49A;L50A

# Variants of: B6
# Conditions: with atg13_human ATG13, O75143
row,effect of a mutation on the interaction,Variant
1,decreasing interaction,Y49A;L50A

# Variants of: B7
# Conditions: with sf3a1_human SF3A1, Q15459
row,effect of a mutation on the interaction,Variant
1,decreasing interaction,Y49A;L50A

# Variants of: B8
# Conditions: with epn4_human CLINT1, Q14677
row,effect of a mutation on the interaction,Variant
1,decreasing interaction,Y49A;L50A

# Variants of: B9
# Conditions: with atga1_human ATG101, Q9BSB4
row,effect of a mutation on the interaction,Variant
1,increasing interaction,Y49A;L50A
2,increasing interaction,R71A
